The values that follow come from patent US20230324389.

Sequences and labels used below:
B1: Legumain (protein)
chain: VPIDDPEDGGKHWVVIVAGSNGWYNYRHQADACHAYQIIHRNGIPDEQIVVMMYDDIAYSEDNPTPGIVINRPNGTDVYQGVPKDYTGEDVTPQNFLAVLRGDAEAVKGIGSGKVLKSGPQDHVFIYFTDHGSTGILVFPNEDLHVKDLNETIHYMYKHKMYRKMVFYIEACESGSMMNHLPDNINVYATTAANPRESSYACYYDEKRSTYLGDWYSVNWMEDSDVEDLTKETLHKQYHLVKSHTNTSHVMQYGNKTISTMKVMQFQGMKRKASSPVPLPPVTHLDLTPSPDVPLTIMKRKLMNTN
B2: MMP7 (protein)
chain: YSLFPNSPKWTSKVVTYRIVSYTRDLPHITVDRLVSKALNMWGKEIPLHFRKVVWGTADIMIGFARGAHGDSYPFDGPGNTLAHAFAPGTGLGGDAHFDEDERWTDGSSLGINFLYAATHELGHSLGMGHSSDPNAVMYPTYGNGDPQNFKLSQDDIKGIQKLYGKRSNSRKK
B3: MMP2 (protein)
chain: YNFFPRKPKWDKNQITYRIIGYTPDLDPETVDDAFARAFQVWSDVTPLRFSRIHDGEADIMINFGRWEHGDGYPFDGKDGLLAHAFAPGTGVGGDSHFDDDELWTLGEGQVVRVKYGNADGEYCKFPFLFNGKEYNSCTDTGRSDGFLWCSTTYNFEKDGKYGFCPHEALFTMGGNAEGQPCKFPFRFQGTSYDSCTTEGRTDGYRWCGTTEDYDRDKKYGFCPETAMSTVGGNSEGAPCVFPFTFLGNKYESCTSAGRSDGKMWCATTANYDDDRKWGFCPDQGYSLFLVAAHEFGHAMGLEHSQDPGALMAPIYTYTKNFRLSQDDIKGIQELYGASPDIDLGTGPTPTLGPVTPEICKQDIVFDGIAQIRGEIFFFKDRFIWRTVTPRDKPMGPLLVATFWPELPEKIDAVYEAPQEEKAVFFAGNEYWIYSASTLERGYPKPLTSLGLPPDVQRVDAAFNWSKNKKTYIFAGDKFWRYNEVKKKMDPGFPKLIADAWNAIPDNLDAVVDLQGGGHSYFFKGAYYLKLENQSLKSVKFGSIKSDWLGC
B4: ST14/Matriptase (protein)
chain: GSDEKDCDCGLRSFTRQARVVGGTDADEGEWPWQVSLHALGQGHICGASLISPNWLVSAAHCYIDDRGFRYSDPTQWTAFLGLHDQSQRSAPGVQERRLKRIISHPFFNDFTFDYDIALLELEKPAEYSSMVRPICLPDASHVFPAGKAIWVTGWGHTQYGGTGALILQKGEIRVINQTTCENLLPQQITPRMMCVGFLSGGVDSCQGDSGGPLSSVEADGRIFQAGVVSWGDGCAQRNKPGVYTRLPLFRDWIKENTGV

One data set addresses 818-C1MA.
For the protein B1, the “unmasking (protease cleavage) rate” value is given as “Legumain demonstrated minimal unmasking differences”.
Same read-out and setting: to B2 belongs “MMP1: 818-P1>818-C1MA=818-C1 MB”; to B3, “MMP2: 818-P1>818-C1MA>818-C1 MB”.
Still for that read-out and setting: to B4 belongs “ST14 unmaking was characterized by 818-C1MA>818-P1>818-C1 MB”.

Another data set concerns the target 818-P1.
For B1, the “unmasking (protease cleavage) rate” value is recorded as “Legumain demonstrated minimal unmasking differences”.
Still for that read-out and setting: the result for B2 reads “MMP1: 818-P1>818-C1MA=818-C1 MB”; that for B3, “MMP2: 818-P1>818-C1MA>818-C1 MB”; that for B4, “ST14 unmaking was characterized by 818-C1MA>818-P1>818-C1 MB”.

In another data set the target is 818-C1 MB.
On to B1, for which the “unmasking (protease cleavage) rate” value is “Legumain demonstrated minimal unmasking differences”.
On the same count and under the same terms, to B2 belongs “MMP1: 818-P1>818-C1MA=818-C1 MB”.
On the same count and under the same terms, the result for B3 reads “MMP2: 818-P1>818-C1MA>818-C1 MB”; that for B4, “ST14 unmaking was characterized by 818-C1MA>818-P1>818-C1 MB”.
